Test results from US20070020252A1, “Modified protease inhibitors” (priority 2003, published 2007).

Key:
[1] = Pharmacokinetic study in mice: plasma clearance of 125I-labeled protein, SEC of plasma; format: in vivo
Experimental: The pharmacokinetics of DX-890 and the PEGylated DX-890 compounds were measured by iodinating the proteins on available tyrosine residues and measuring their clearance in mice.
Samples were radio-iodinated by the indirect method using the IODO-GEN reagent (method from Pierce Chem. Co., and first described by Chizzonite [J Immunol 147, 1548-1556, 1991; J. Immunol 148, 3117-3124, 1992]). Samples were incubated with the ^125I-NaI solution for 9 min at which time tyrosine (10 mg/mL, a saturated solution) was added to quench the reaction. After about 15 min a 5 μl aliquot was removed as a standard for counting.
For each labeling reaction, the ^125I-labeled material (approx. 0.6 mL) was purified using a single 5 mL D-salt 1800 polyacrylamide column (Pierce Chem. Co.). […] Samples were applied in and columns were eluted with a series of 0.3 mL aliquots. Recovery of applied activity in all protein fractions was >75% and the total recovery of applied activity was >90%. The fractions containing peak levels of labeled protein were pooled for animal injections. To prepare the injectate, the pool was diluted with Tris buffer (pH 7.5) so that the 100 μL injection volume contained about 10 μg of labeled material.
Time of injection and time of sampling were recorded. At sacrifice, samples of 0.5 ml were collected into anticoagulant (0.02 ml EDTA). Cells were spun down and separated from plasma, and cells were stored at −20° C. Plasma was divided into two aliquots, one frozen and one stored at 4° C. for immediate analysis. Analysis included gamma counting of all samples. In addition, analysis was performed for two plasma samples (N=2) at each time point, i.e., 0, and 30 minutes, for ^125I-DX-890, and 0, 30 minutes, and 24 h for the ^125I-DX-890-PEG conjugates. A SEC-HPLC Superose-12 column was used with an in-line radiation detector (FIGS. 4-7).
The solid curves through the sets of data plotted in FIG. 3 are four-parameter, least-squares fits of Equation 3 to the data. Table 3 presents the values for % α Phase, α Phase Half-life, % β Phase, and β Phase Half-life extracted from the least squares fits to the in vivo clearance data set obtained for each of the four compounds tested in mice.

[2] = Pharmacokinetic study in rabbits: plasma clearance of 125I-labeled protein, SEC of plasma; format: in vivo, New Zealand White rabbits
Experimental: Pharmacokinetic properties of DX-890 and PEG-30-DX-890 (conjugation at pH 7.4) were measured by iodinating the proteins and measuring clearance of the radiolabel from circulation in rabbits. The two DX-890 preparations were iodinated with iodine-125 using the iodogen method. After radiolabeling, the two labeled protein preparations were purified from unbound label by size exclusion chromatography (SEC). Fractions from the SEC column having the highest radioactivity were pooled. The purified, radiolabeled preparations were characterized for specific activity by gamma counting and for purity by SEC using a Superose-12 column equipped with an in-line radiation detector.
New Zealand White rabbits (ca. 2.5 Kg) were used for clearance measurements, with one animal used for each of the two labeled protein preparations. The radiolabeled preparation was injected into the animal via an ear vein. One blood sample was collected per animal per time point with early time points at approximately 0, 2.5, 5, 7, 15, 30, 60, and 90 minutes post injection and later time points at 4, 8, 16, 24, 30, 48, 72, 96, 144, 168, and 192 hours post injection. Samples (about 0.5 mL) were collected into anticoagulant (EDTA) containing tubes. Cells were separated from the plasma fraction by centrifugation. The plasma fraction was divided into two aliquots. One plasma aliquot was stored at −70° C. and the other aliquot was kept at 4° C. for immediate analyse's. Sample analyses included radiation counting for clearance rate determinations and SEC chromatography to test for changes in the size distribution of radiolabeled material in vivo (stability).

[3] = Allometric extrapolation of β-phase half-life from mice and rabbits to humans; details: 70 Kg human, linear extrapolation from mice and rabbits
Description: Data on in vivo pharmacokinetic parameters obtained from small laboratory mammals (e.g. rodents, dogs, and monkeys) can be extrapolated to humans by interspecies scaling (summarized by Mahmood and Balian, Life Sciences 7: 579-585, 1996 and Clin Pharmacokinet 36:1-11, 1999). A simple allometric approach describes the relationship between bodyweight (W) and a pharmacokinetic parameter of interest (Y) in terms of the power function: Y=aW^b (Equation 4) where a and b are the empirically determined coefficient and exponent of the allometric equation, respectively. […] Further, of the three most important pharmacokinetic parameters (total body clearance, volume of distribution, and t1/2β) typically measured, t1/2β is least well predicted by Equation 4. With these caveats in mind, data presented in Tables 2 and 4 can be used to provide crude estimates of expected t1/2β in humans.
FIG. 10 presents data from Tables 2 and 4 plotted as log [Beta Phase Half-Live] vs log [Body Mass] for unmodified DX-890 (triangles) and mono-PEG30-DX-890 (circles). Linear extrapolations of the experimental data for mice (25 gm) and rabbits (2.5 Kg) to humans (70 Kg) are shown by the solid crosses in the figure. The extrapolated values for β-phase half-lives in humans are ˜5 hours for unmodified DX-890 and ˜14 days for mono-PEG30-DX-890. […]

[4] = target: T1, human neutrophil elastase (HNE) (Homo sapiens, UniProt P08246); details: description statement; cited from earlier work
T1 sequence (P08246 30-267): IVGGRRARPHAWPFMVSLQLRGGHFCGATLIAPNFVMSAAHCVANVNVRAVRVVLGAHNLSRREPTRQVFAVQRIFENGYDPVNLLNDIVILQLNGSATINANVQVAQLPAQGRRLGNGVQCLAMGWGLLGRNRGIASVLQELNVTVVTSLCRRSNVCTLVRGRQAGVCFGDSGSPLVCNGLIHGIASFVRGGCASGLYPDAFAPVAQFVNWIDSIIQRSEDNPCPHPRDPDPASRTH

[5] = tail vein injection, bi-exponential fit
[6] = ear vein injection, bi-exponential fit

For “DX-890: 56 amino acid Kunitz domain polypeptide derived from ITI-D2, inhibitor of human neutrophil elastase, produced in Pichia pastoris (EACNLPIVRGPCIAFFPRWAFDAVKGKCVLFPYGGCQGNGNKFYSEKECREYCGVP)”, the “percentage cleared in the β phase” value [1] was “about 15%”, the “α phase half life” value [1] was “about 1 min” and the “β phase half life” value [1] was “about 1 hr”. For the same substance, the “material remaining in circulation” value ([1]; 30 minutes after injection) was “less than 20%”, the α half life ([1]; Table 4 summary) was 1 min and the β half life ([1]; Table 4 summary) was 79 min. For the same substance, the “α Phase Clearance (%)” value [1, 5] was 84%, the “α Phase Half-life” value [1, 5] was 1.0 min and the “β Phase Clearance (%)” value [1, 5] was 16%. For the same substance, the “β Phase Half-life (hr)” value [1, 5] was 1.3 h, the “β Phase Half-life (min)” value [1, 5] was 79 min and the “in vivo stability, SEC analysis of plasma” value [2] was “relatively rapid association of label with higher molecular weight plasma components”. The “% α” value [2, 6] was 75%, the “% β” value [2, 6] was 25% and the T1/2α [2, 6] was 0.4 min. The T1/2β [2, 6] was 165 min, the “extrapolated β-phase half-life in humans” value [3] was roughly 5 h and the Ki [4] was 4 pM.
